The record followed here is ChEMBL document CHEMBL1212772.

Substrate in data set [1]: CC(C)(O/N=C(\C(=O)N[C@@H]1C(=O)N2C(C(=O)[O-])=C(C[n+]3ccccc3)CS[C@H]12)c1csc(N)n1)C(=O)O
Description: Activity of Pseudomonas aeruginosa SPM-1.

The target of data set [2] is Pseudomonas aeruginosa. Description: Activity of Pseudomonas aeruginosa SPM-1.
Substrate in data set [3]: CC(C)(O/N=C(\C(=O)N[C@@H]1C(=O)N2C(C(=O)[O-])=C(C[n+]3ccccc3)CS[C@H]12)c1csc(N)n1)C(=O)O
Put plainly: Kcat/Km ratio of Pseudomonas aeruginosa SPM-1.

Substrate in data set [4]: CC1(C)S[C@@H]2[C@H](NC(=O)Cc3ccccc3)C(=O)N2[C@H]1C(=O)O
Put plainly: (§1) Activity of Acinetobacter baumannii OXA-23.

Substrate in data set [5]: CC(C)(O/N=C(\C(=O)N[C@@H]1C(=O)N2C(C(=O)[O-])=C(C[n+]3ccccc3)CS[C@H]12)c1csc(N)n1)C(=O)O
The data set is described as §1.

Substrate in data set [6]: O=C(Cc1cccs1)N[C@@H]1C(=O)N2C(C(=O)[O-])=C(C[n+]3ccccc3)CS[C@H]12
Described as §1.

Substrate in data set [7]: C[C@@H](O)[C@H]1C(=O)N2C(C(=O)O)=C(S[C@@H]3CN[C@H](C(=O)N(C)C)C3)[C@H](C)[C@H]12
The description is as §1.

Substrate in data set [8]: C[C@@H](O)[C@H]1C(=O)N2C(C(=O)O)=C(SCCNC=N)C[C@H]12
The description is as §1.

Substrate in data set [9]: C[C@@H](O)[C@H]1C(=O)N2C(C(=O)O)=C(S[C@@H]3CN[C@H](CNS(N)(=O)=O)C3)[C@H](C)[C@H]12
The description is as §1.

Substrate in data set [10]: CC1(C)S[C@@H]2[C@H](NC(=O)Cc3ccccc3)C(=O)N2[C@H]1C(=O)O
As to conditions: Acinetobacter baumannii.

Substrate in data set [11]: O=C(Cc1cccs1)N[C@@H]1C(=O)N2C(C(=O)[O-])=C(C[n+]3ccccc3)CS[C@H]12
As to conditions: Acinetobacter baumannii.

Substrate in data set [12]: C[C@@H](O)[C@H]1C(=O)N2C(C(=O)O)=C(S[C@@H]3CN[C@H](C(=O)N(C)C)C3)[C@H](C)[C@H]12
As to conditions: Acinetobacter baumannii.

Substrate in data set [13]: C[C@@H](O)[C@H]1C(=O)N2C(C(=O)O)=C(SCCNC=N)C[C@H]12
The settings on record: Acinetobacter baumannii.

Substrate in data set [14]: C[C@@H](O)[C@H]1C(=O)N2C(C(=O)O)=C(S[C@@H]3CN[C@H](CNS(N)(=O)=O)C3)[C@H](C)[C@H]12
As to conditions: Acinetobacter baumannii.

Data set [15] has as its target Pseudomonas aeruginosa. Description: Kcat/Km ratio of Pseudomonas aeruginosa SPM-1.
Substrate in data set [16]: O=C(Cc1cccs1)N[C@@H]1C(=O)N2C(C(=O)O)=C(/C=C/c3ccc([N+](=O)[O-])cc3[N+](=O)[O-])CS[C@H]12
Description: (§2) Activity of Escherichia coli CMY-2.

Substrate in data set [17]: CC1(C)S[C@@H]2[C@H](NC(=O)Cc3ccccc3)C(=O)N2[C@H]1C(=O)O
Described as §2.

Substrate in data set [18]: CC(C)(O/N=C(\C(=O)N[C@@H]1C(=O)N2C(C(=O)[O-])=C(C[n+]3ccccc3)CS[C@H]12)c1csc(N)n1)C(=O)O
The description is as §2.

Substrate in data set [19]: O=C(Cc1cccs1)N[C@@H]1C(=O)N2C(C(=O)[O-])=C(C[n+]3ccccc3)CS[C@H]12
Described as §2.

Substrate in data set [20]: C[C@@H](O)[C@H]1C(=O)N2C(C(=O)O)=C(S[C@@H]3CN[C@H](C(=O)N(C)C)C3)[C@H](C)[C@H]12
Described as §2.

Substrate in data set [21]: C[C@@H](O)[C@H]1C(=O)N2C(C(=O)O)=C(SCCNC=N)C[C@H]12
The description is as §2.

Substrate in data set [22]: C[C@@H](O)[C@H]1C(=O)N2C(C(=O)O)=C(S[C@@H]3CN[C@H](CNS(N)(=O)=O)C3)[C@H](C)[C@H]12
Described as §2.

Compound in data set [23]: C[C@@H](O)[C@H]1C(=O)N2C(C(=O)O)=C(S[C@@H]3CN[C@H](C(=O)N(C)C)C3)[C@H](C)[C@H]12
Description: (§3) Inhibition of Escherichia coli CMY-2 assessed as inhibition of nitrocefin hydrolysis.

Compound in data set [24]: C[C@@H](O)[C@H]1C(=O)N2C(C(=O)O)=C(SCCNC=N)C[C@H]12
The description is as §3.

Substrate in data set [25]: O=C(Cc1cccs1)N[C@@H]1C(=O)N2C(C(=O)O)=C(/C=C/c3ccc([N+](=O)[O-])cc3[N+](=O)[O-])CS[C@H]12
Put plainly: (§4) Kcat/Km ratio of Escherichia coli CMY-2.

Substrate in data set [26]: CC1(C)S[C@@H]2[C@H](NC(=O)Cc3ccccc3)C(=O)N2[C@H]1C(=O)O
The description is as §4.

Substrate in data set [27]: CC(C)(O/N=C(\C(=O)N[C@@H]1C(=O)N2C(C(=O)[O-])=C(C[n+]3ccccc3)CS[C@H]12)c1csc(N)n1)C(=O)O
The data set is described as §4.

Substrate in data set [28]: O=C(Cc1cccs1)N[C@@H]1C(=O)N2C(C(=O)[O-])=C(C[n+]3ccccc3)CS[C@H]12
Described as §4.

Substrate in data set [29]: C[C@@H](O)[C@H]1C(=O)N2C(C(=O)O)=C(S[C@@H]3CN[C@H](C(=O)N(C)C)C3)[C@H](C)[C@H]12
The description is as §4.

Substrate in data set [30]: C[C@@H](O)[C@H]1C(=O)N2C(C(=O)O)=C(SCCNC=N)C[C@H]12
The description is as §4.

Substrate in data set [31]: C[C@@H](O)[C@H]1C(=O)N2C(C(=O)O)=C(S[C@@H]3CN[C@H](CNS(N)(=O)=O)C3)[C@H](C)[C@H]12
The description is as §4.

Compound in data set [32]: C[C@@H](O)[C@H]1C(=O)N2C(C(=O)O)=C(S[C@@H]3CN[C@H](C(=O)N(C)C)C3)[C@H](C)[C@H]12
Description: (§5) Inhibition of Pseudomonas aeruginosa AmpC assessed as inhibition of nitrocefin hydrolysis.

Compound in data set [33]: C[C@@H](O)[C@H]1C(=O)N2C(C(=O)O)=C(SCCNC=N)C[C@H]12
Described as §5.

Compound in data set [34]: C[C@@H](O)[C@H]1C(=O)N2C(C(=O)O)=C(S[C@@H]3CN[C@H](CNS(N)(=O)=O)C3)[C@H](C)[C@H]12
The data set is described as §5.

Substrate in data set [35]: O=C(Cc1cccs1)N[C@@H]1C(=O)N2C(C(=O)O)=C(/C=C/c3ccc([N+](=O)[O-])cc3[N+](=O)[O-])CS[C@H]12
Put plainly: (§6) Kcat/Km ratio of Pseudomonas aeruginosa AmpC.

Substrate in data set [36]: CC1(C)S[C@@H]2[C@H](NC(=O)Cc3ccccc3)C(=O)N2[C@H]1C(=O)O
The description is as §6.

Substrate in data set [37]: O=C(Cc1cccs1)N[C@@H]1C(=O)N2C(C(=O)[O-])=C(C[n+]3ccccc3)CS[C@H]12
Described as §6.

Substrate in data set [38]: C[C@@H](O)[C@H]1C(=O)N2C(C(=O)O)=C(S[C@@H]3CN[C@H](C(=O)N(C)C)C3)[C@H](C)[C@H]12
The description is as §6.

Substrate in data set [39]: C[C@@H](O)[C@H]1C(=O)N2C(C(=O)O)=C(SCCNC=N)C[C@H]12
The description is as §6.

Substrate in data set [40]: C[C@@H](O)[C@H]1C(=O)N2C(C(=O)O)=C(S[C@@H]3CN[C@H](CNS(N)(=O)=O)C3)[C@H](C)[C@H]12
The data set is described as §6.

Substrate in data set [41]: O=C(Cc1cccs1)N[C@@H]1C(=O)N2C(C(=O)O)=C(/C=C/c3ccc([N+](=O)[O-])cc3[N+](=O)[O-])CS[C@H]12
Put plainly: (§7) Activity of Pseudomonas aeruginosa AmpC.

Substrate in data set [42]: CC1(C)S[C@@H]2[C@H](NC(=O)Cc3ccccc3)C(=O)N2[C@H]1C(=O)O
The data set is described as §7.

Substrate in data set [43]: O=C(Cc1cccs1)N[C@@H]1C(=O)N2C(C(=O)[O-])=C(C[n+]3ccccc3)CS[C@H]12
The description is as §7.

Substrate in data set [44]: C[C@@H](O)[C@H]1C(=O)N2C(C(=O)O)=C(S[C@@H]3CN[C@H](C(=O)N(C)C)C3)[C@H](C)[C@H]12
Described as §7.

Substrate in data set [45]: C[C@@H](O)[C@H]1C(=O)N2C(C(=O)O)=C(SCCNC=N)C[C@H]12
Described as §7.

Substrate in data set [46]: C[C@@H](O)[C@H]1C(=O)N2C(C(=O)O)=C(S[C@@H]3CN[C@H](CNS(N)(=O)=O)C3)[C@H](C)[C@H]12
The description is as §7.

Bounds are passed on as bounds.

B1: Beta-lactamase OXA-23 (Acinetobacter baumannii), Q9L4P2 (protein)
chain: MNKYFTCYVVASLFLSGCTVQHNLINETPSQIVQGHNQVIHQYFDEKNTSGVLVIQTDKKINLYGNALSRANTEYVPASTFKMLNALIGLENQKTDINEIFKWKGEKRSFTAWEKDMTLGEAMKLSAVPVYQELARRIGLDLMQKEVKRIGFGNAEIGQQVDNFWLVGPLKVTPIQEVEFVSQLAHTQLPFSEKVQANVKNMLLLEESNGYKIFGKTGWAMDIKPQVGWLTGWVEQPDGKIVAFALNMEMRSEMPASIRNELLMKSLKQLNII
What is called Km is the substrate concentration at which the rate is half of its maximum. By kcat is commonly meant the maximal rate divided by the concentration of active sites. In general, kcat/Km refers to the turnover number divided by the Michaelis constant. With B1, the Km was found to be 120 µM in data set [1]; 82 µM with Pseudomonas aeruginosa [2]; 13 µM in data set [4]; 1300 µM in data set [6]; 2.5 µM in data set [7]; 1.3 µM in data set [8]. The Km in data set [9] came out at 1.8 µM. Also, the kcat in data set [1] is 77 s⁻¹; with Pseudomonas aeruginosa [2], 45 s⁻¹; in [4] it was 530 s⁻¹; in [5], less than 0.0042 s⁻¹; in data set [6], 450 s⁻¹; in data set [7] it was 0.13 s⁻¹. Moreover, the kcat in [8] came out at 0.92 s⁻¹; in [9], 0.2 s⁻¹. For the same protein, the kcat/Km in data set [3] turned out to be 0.64 s⁻¹ µM⁻¹; in data set [10], 41 s⁻¹ µM⁻¹; in data set [11] it was 0.35 s⁻¹ µM⁻¹; in data set [12] it was 0.052 s⁻¹ µM⁻¹; in data set [13], 0.05 s⁻¹ µM⁻¹; in data set [14] it was 0.11 s⁻¹ µM⁻¹. Moreover, the kcat/Km with Pseudomonas aeruginosa [15] came to 0.55 s⁻¹ µM⁻¹.

B2: Beta-lactamase (Escherichia coli), Q53TY8 (protein)
chain: MMKKSLCCALLLTASFSTFAAAKTEQQIADIVNRTITPLMQEQAIPGMAVAVIYQGKPYYFTWGKADIANNHPVTQQTLFELGSVSKTFNGVLGGDAIARGEIKLSDPVTKYWPELTGKQWQGIRLLHLATYTAGGLPLQIPDDVRDKAALLHFYQNWQPQWTPGAKRLYANSSIGLFGALAVKPSGMSYEEAMTRRVLQPLKLAHTWITVPQNEQKDYAWGYREGKPVHVSPGQLDAEAYGVKSSVIDMARWVQANMDASHVQEKTLQQGIALAQSRYWRIGDMYQGLGWEMLNWPLKADSIINGSDSKVALAALPAVEVNPPAPAVKASWVHKTGSTGGFGSYVAFVPEKNLGIVMLANKSYPNPVRVEAAWRILEKLQ
As to B2, the Michaelis constant (Km) was found to be 40 µM in data set [16]; 2.2 µM in [17]; 4.5 µM in [18]; 290 µM in data set [19]; 0.06 µM in data set [23]; 0.31 µM in data set [24]. Moreover, the kcat is 1700 s⁻¹ in [16]; 22 s⁻¹ in [17]; 0.0035 s⁻¹ in data set [18]; 710 s⁻¹ in [19]; 8.1e-05 s⁻¹ in data set [20]; less than 0.031 s⁻¹ in data set [21]. In addition, the turnover number (kcat) in data set [22] was 7.2e-05 s⁻¹. The kcat/Km was 43 s⁻¹ µM⁻¹ in data set [25]; 10 s⁻¹ µM⁻¹ in [26]; 0.00078 s⁻¹ µM⁻¹ in [27]; 2.4 s⁻¹ µM⁻¹ in data set [28]; 0.0014 s⁻¹ µM⁻¹ in [29]; 0.1 s⁻¹ µM⁻¹ in data set [30]. The kcat/Km in [31] worked out at 0.016 s⁻¹ µM⁻¹.

B3: Beta-lactamase (Pseudomonas aeruginosa (strain ATCC 15692 / PAO1 / 1C / PRS 101 / LMG12228)), P24735 (protein)
chain: MRDTRFPCLCGIAASTLLFATTPAIAGEAPADRLKALVDAAVQPVMKANDIPGLAVAISLKGEPHYFSYGLASKEDGRRVTPETLFEIGSVSKTFTATLAGYALTQDKMRLDDRASQHWPALQGSRFDGISLLDLATYTAGGLPLQFPDSVQKDQAQIRDYYRQWQPTYAPGSQRLYSNPSIGLFGYLAARSLGQPFERLMEQQVFPALGLEQTHLDVPEAALAQYAQGYGKDDRPLRVGPGPLDAEGYGVKTSAADLLRFVDANLHPERLDRPWAQALDATHRGYYKVGDMTQGLGWEAYDWPISLKRLQAGNSTPMALQPHRIARLPAPQALEGQRLLNKTGSTNGFGAYVAFVPGRDLGLVILANRNYPNAERVKIAYAILSGLEQQGKVPLKR
As to B3, the Michaelis constant (Km) turned out to be 1.4 µM in [32]; 1.6 µM in data set [33]; 1.8 µM in data set [34]; 31 µM in data set [41]; 14 µM in data set [42]; 350 µM in [43]. In addition, the kcat/Km is 4.8 s⁻¹ µM⁻¹ in data set [35]; 3.1 s⁻¹ µM⁻¹ in [36]; 0.27 s⁻¹ µM⁻¹ in data set [37]; less than 0.0043 s⁻¹ µM⁻¹ in [38]; less than 4.8 s⁻¹ µM⁻¹ in data set [39]; less than 0.0033 s⁻¹ µM⁻¹ in [40]. The kcat in data set [41] was 150 s⁻¹; in [44] it was less than 0.006 s⁻¹; in data set [45] it was less than 0.03 s⁻¹; in data set [46] it was less than 0.006 s⁻¹.
